± gives the standard deviation of the averaged measurements.
Test system: ATP
Experiment: switch fluorescence ratio, 500 uM ATP over buffer (Cy3 cluster intensity, sum of 5 cycles each) (fold (ratio)); higher = stronger signal-on switching upon ATP binding; sequences stand for … in TCGTCGGCAGCGTCAGATGTGTATAAGAGACAGTTTTTTTTTTTTTTTTTTTTTTTTT…TC
Conditions: aptamer strand: ATP DNA aptamer (quencher-CACCTGGGGGAGTATTGCGGAGGAAGG + anchor), 100 nM annealed; ATP concentration: 500 uM
Outline: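 The quencher-labelled ATP aptamer, at 100 nM, was annealed to Cy3-labelled switching-strand clusters on a modified Illumina MiSeq flow-cell. The clusters were imaged in selection buffer, then after 15 min with 500 uM ATP at 22 °C, and this buffer/ATP cycle ran five times with NaOH stripping and re-annealing between runs. Per-cluster fluorescence ratios, summed target-cycle over summed buffer-cycle Cy3 intensity, were averaged per switch-domain sequence. Clusters outside 100-1000 RFU were excluded.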
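Also: ATP exposure 15 min at 22 °C before imaging.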

TAATTTCTGC
switch fluorescence ratio: 0.993 ± 0.018

TAATTTGAAC
switch fluorescence ratio: 1.02 ± 0.043

TAATTTGCAG
switch fluorescence ratio: 0.9812 ± 0.0076

TAATTTGTCG
switch fluorescence ratio: 0.982 ± 0.023

TAATTTGTGT
switch fluorescence ratio: 1.01 ± 0.014

TAATTTTGGT
switch fluorescence ratio: 0.9847 ± 0.0068

TAATTTTGTT
switch fluorescence ratio: 1.02 ± 0.019

TAATTTTTTT
switch fluorescence ratio: 1.01 ± 0.014

TACAACTTTC
switch fluorescence ratio: 1.08 ± 0.051

TACAAGCTTT
switch fluorescence ratio: 0.992 ± 0.024

TACAAGGTCA
switch fluorescence ratio: 1.01 ± 0.0045

TACAATTTCG
switch fluorescence ratio: 1.01 ± 0.032

TACACGGGGT
switch fluorescence ratio: 1.05 ± 0.018

TACACGTTTT
switch fluorescence ratio: 1.03 ± 0.021

TACAGACCCG
switch fluorescence ratio: 1.07 ± 0.062

TACAGACGAT
switch fluorescence ratio: 1.3 ± 0.068

TACAGCAGTA
switch fluorescence ratio: 1.1 ± 0.14

TACAGCGGAG
switch fluorescence ratio: 0.999 ± 0.066

TACAGGCGTA
switch fluorescence ratio: 0.9955 ± 0.0069

TACAGGGGGG
switch fluorescence ratio: 1 ± 0.027

TACAGGGGTA
switch fluorescence ratio: 1.05 ± 0.012

TACAGGTGTG
switch fluorescence ratio: 1.24 ± 0.044

TACAGGTTGG
switch fluorescence ratio: 1.03 ± 0.037

TACAGGTTTT
switch fluorescence ratio: 0.972 ± 0.073

TACAGTAGGA
switch fluorescence ratio: 1.06 ± 0.064

TACAGTCAAC
switch fluorescence ratio: 1.06 ± 0.041

TACATAGGCA
switch fluorescence ratio: 1.03 ± 0.035

TACATCATCG
switch fluorescence ratio: 1.14 ± 0.016

TACATCATGG
switch fluorescence ratio: 1.04 ± 0.019

TACATGAAGA
switch fluorescence ratio: 1.02 ± 0.013

TACATGAAGG
switch fluorescence ratio: 0.995 ± 0.019

TACATGGGTA
switch fluorescence ratio: 0.9583 ± 0.0072

TACATGGTTT
switch fluorescence ratio: 1.01 ± 0.032

TACATGTCCG
switch fluorescence ratio: 1.05 ± 0.064

TACATGTCGG
switch fluorescence ratio: 1.01 ± 0.0022

TACATTAGGC
switch fluorescence ratio: 1.05 ± 0.018

TACATTCGCG
switch fluorescence ratio: 1.01 ± 0.035

TACATTGGCT
switch fluorescence ratio: 0.982 ± 0.019

TACATTTGGG
switch fluorescence ratio: 0.992 ± 0.021

TACCAAAGAA
switch fluorescence ratio: 1.04 ± 0.026

TACCAATAAG
switch fluorescence ratio: 1.03 ± 0.044

TACCACGGGT
switch fluorescence ratio: 1.03 ± 0.018

TACCAGGGTA
switch fluorescence ratio: 1.05 ± 0.047

TACCATGACC
switch fluorescence ratio: 1.109 ± 0.0081

TACCATGGTT
switch fluorescence ratio: 0.9841 ± 0.0061

TACCATTAGT
switch fluorescence ratio: 1.041 ± 0.0085

TACCCCGGTA
switch fluorescence ratio: 1.04 ± 0.035

TACCCGCGCG
switch fluorescence ratio: 1.026 ± 0.003

TACCCGGGTT
switch fluorescence ratio: 1.11 ± 0.2

TACCGCGGTT
switch fluorescence ratio: 1.04 ± 0.03

TACCGCGTGG
switch fluorescence ratio: 1.03 ± 0.017

TACCGCTTGC
switch fluorescence ratio: 2.01 ± 0.53

TACCGGTGTC
switch fluorescence ratio: 1.06 ± 0.047

TACCTATTGG
switch fluorescence ratio: 0.9974 ± 0.0039

TACCTTGGGC
switch fluorescence ratio: 1.04 ± 0.046

TACCTTTGGG
switch fluorescence ratio: 1.02 ± 0.032

TACGAAGGGG
switch fluorescence ratio: 1.02 ± 0.018

TACGAAGTAG
switch fluorescence ratio: 0.993 ± 0.042

TACGAATCTG
switch fluorescence ratio: 1.03 ± 0.019

TACGACACCT
switch fluorescence ratio: 1.73 ± 0.027

TACGATGCTT
switch fluorescence ratio: 1.2 ± 0.028

TACGCGGGGT
switch fluorescence ratio: 1.29 ± 0.45

TACGCTTTTT
switch fluorescence ratio: 1.02 ± 0.055

TACGGGAACG
switch fluorescence ratio: 1.06 ± 0.018

TACGGGAGTC
switch fluorescence ratio: 1.06 ± 0.16

TACGGGCACG
switch fluorescence ratio: 1.04 ± 0.028

TACGGGCATA
switch fluorescence ratio: 1.1 ± 0.049

TACGGGCGCG
switch fluorescence ratio: 0.981 ± 0.017

TACGGGGCCT
switch fluorescence ratio: 1.04 ± 0.064

TACGGGGG
switch fluorescence ratio: 1.01 ± 0.071

TACGGGGGCG
switch fluorescence ratio: 1.01 ± 0.1

TACGGGGGGT
switch fluorescence ratio: 1.02 ± 0.026

TACGGTAAAA
switch fluorescence ratio: 0.986 ± 0.044

TACGGTGGGA
switch fluorescence ratio: 1.0079 ± 0.00053

TACGGTGTGG
switch fluorescence ratio: 0.989 ± 0.04

TACGGTTACT
switch fluorescence ratio: 1.27 ± 0.014

TACGGTTGCA
switch fluorescence ratio: 1.01 ± 0.017

TACGGTTGGC
switch fluorescence ratio: 0.989 ± 0.023

TACGTCATTA
switch fluorescence ratio: 1.2 ± 0.012

TACGTCCCCG
switch fluorescence ratio: 1.03 ± 0.04

TACGTCCCGA
switch fluorescence ratio: 1.01 ± 0.045

TACGTGCATT
switch fluorescence ratio: 1.0476 ± 0.00035

TACGTGCCTC
switch fluorescence ratio: 0.99 ± 0.02

TACGTGGGGG
switch fluorescence ratio: 1.02 ± 0.029

TACGTGGTGG
switch fluorescence ratio: 1.05 ± 0.024

TACGTGTGGG
switch fluorescence ratio: 1.02 ± 0.038

TACGTTGCAA
switch fluorescence ratio: 1.22 ± 0.015

TACGTTTGCG
switch fluorescence ratio: 1.01 ± 0.014

TACGTTTGGG
switch fluorescence ratio: 0.981 ± 0.031

TACGTTTTTC
switch fluorescence ratio: 1.003 ± 0.0048

TACTAACATT
switch fluorescence ratio: 1.14 ± 0.019

TACTAAGGGG
switch fluorescence ratio: 1.04 ± 0.041

TACTAAGTTG
switch fluorescence ratio: 1.07 ± 0.055

TACTAATGGA
switch fluorescence ratio: 1.01 ± 0.041

TACTACAGGG
switch fluorescence ratio: 1.11 ± 0.013

TACTAGTTGT
switch fluorescence ratio: 0.99 ± 0.022

TACTCATTGT
switch fluorescence ratio: 1.03 ± 0.021

TACTCGCCAT
switch fluorescence ratio: 1.13 ± 0.035

TACTCGCTGG
switch fluorescence ratio: 1.07 ± 0.036

TACTCGGGCT
switch fluorescence ratio: 1.017 ± 0.0044

TACTCTAAAA
switch fluorescence ratio: 1.08 ± 0.022

TACTGACGAA
switch fluorescence ratio: 1.27 ± 0.11

TACTGATAGG
switch fluorescence ratio: 1.0161 ± 0.00099

TACTGGGTTC
switch fluorescence ratio: 0.987 ± 0.047

TACTGGTATG
switch fluorescence ratio: 1.03 ± 0.037

TACTGGTCCT
switch fluorescence ratio: 1.03 ± 0.038

TACTGGTGGT
switch fluorescence ratio: 0.992 ± 0.016

TACTGTGACA
switch fluorescence ratio: 1.14 ± 0.012

TACTGTGGTC
switch fluorescence ratio: 1.025 ± 0.0053

TACTGTTATG
switch fluorescence ratio: 1.1 ± 0.099

TACTTAAGTG
switch fluorescence ratio: 1.02 ± 0.047

TACTTAATAG
switch fluorescence ratio: 1.03 ± 0.0015

TACTTAGA
switch fluorescence ratio: 1.04 ± 0.015

TACTTAGCGA
switch fluorescence ratio: 1.18 ± 0.044

TACTTAGGAT
switch fluorescence ratio: 1.02 ± 0.044

TACTTAGGTG
switch fluorescence ratio: 1.17 ± 0.12

TACTTATATG
switch fluorescence ratio: 1.03 ± 0.016

TACTTATTGT
switch fluorescence ratio: 0.9755 ± 0.0083

TACTTGTGTG
switch fluorescence ratio: 0.988 ± 0.011

TACTTGTTTC
switch fluorescence ratio: 1.01 ± 0.027

TACTTTAATT
switch fluorescence ratio: 1.04 ± 0.014

TACTTTAGGG
switch fluorescence ratio: 1.04 ± 0.024

TACTTTGCGG
switch fluorescence ratio: 1.01 ± 0.063

TACTTTGGGC
switch fluorescence ratio: 1.03 ± 0.065

TACTTTTATA
switch fluorescence ratio: 1.03 ± 0.017

TAGAAAAGCA
switch fluorescence ratio: 0.997 ± 0.024

TAGAAAAGGG
switch fluorescence ratio: 1.03 ± 0.031

TAGAAAAGGT
switch fluorescence ratio: 0.974 ± 0.028

TAGAAAATAA
switch fluorescence ratio: 0.995 ± 0.021

TAGAAACCTT
switch fluorescence ratio: 1.81 ± 1.1

TAGAAAGGGC
switch fluorescence ratio: 1.01 ± 0.08

TAGAAATTAT
switch fluorescence ratio: 1.19 ± 0.38

TAGAACGGGG
switch fluorescence ratio: 0.9978 ± 0.0022

TAGAAGGGCA
switch fluorescence ratio: 0.988 ± 0.015

TAGAAGGGGG
switch fluorescence ratio: 0.965 ± 0.016

TAGAAGTTTG
switch fluorescence ratio: 0.976 ± 0.026

TAGAATATAT
switch fluorescence ratio: 1.78 ± 1

TAGAATTAGG
switch fluorescence ratio: 0.987 ± 0.037

TAGAATTTGG
switch fluorescence ratio: 1.01 ± 0.06

TAGACACAGC
switch fluorescence ratio: 1.02 ± 0.12

TAGACCATGT
switch fluorescence ratio: 1.02 ± 0.034

TAGACGTCGT
switch fluorescence ratio: 0.965 ± 0.024

TAGACTTATG
switch fluorescence ratio: 1.04 ± 0.02

TAGAGAAATA
switch fluorescence ratio: 1.01 ± 0.064

TAGAGAATGG
switch fluorescence ratio: 0.994 ± 0.0086

TAGAGACTGA
switch fluorescence ratio: 1.023 ± 0.0022

TAGAGCACGG
switch fluorescence ratio: 1.02 ± 0.012

TAGAGCAGCT
switch fluorescence ratio: 1.03 ± 0.021

TAGAGGAAGG
switch fluorescence ratio: 0.979 ± 0.021

TAGAGGAGGC
switch fluorescence ratio: 0.996 ± 0.017

TAGAGGGCTG
switch fluorescence ratio: 1.01 ± 0.016

TAGAGGGGAT
switch fluorescence ratio: 0.985 ± 0.027

TAGAGGGGGA
switch fluorescence ratio: 0.987 ± 0.018

TAGAGGGTTG
switch fluorescence ratio: 0.969 ± 0.02

TAGAGGGTTT
switch fluorescence ratio: 1.02 ± 0.045

TAGAGGTTGG
switch fluorescence ratio: 0.981 ± 0.042

TAGAGTAACA
switch fluorescence ratio: 1 ± 0.035

From the supplement of paper PMC10126150
